Usually Kd stands for a measure of binding affinity in units of concentration.

The values that follow come from patent publication US20240238433A1 (published 2024).

Common to all, as to assay: BLI
For orientation: Biolayer interferometry detects binding as a change in optical thickness at a sensor tip.

Test [1] deals with CEACAM5 (UniProt P06731).
For test [2], the target named is CEACAM5 N256A (UniProt P06731).
The target of test [3] is CEACAM6 N256A (UniProt P40199).
Test [4] concerns the target CEACAM6 (UniProt P40199).
For test [5], the target named is T1, In-house produced Avi-tagged N256A mutated CEACAM5 (UniProt P06731 35-685).
T1 chain: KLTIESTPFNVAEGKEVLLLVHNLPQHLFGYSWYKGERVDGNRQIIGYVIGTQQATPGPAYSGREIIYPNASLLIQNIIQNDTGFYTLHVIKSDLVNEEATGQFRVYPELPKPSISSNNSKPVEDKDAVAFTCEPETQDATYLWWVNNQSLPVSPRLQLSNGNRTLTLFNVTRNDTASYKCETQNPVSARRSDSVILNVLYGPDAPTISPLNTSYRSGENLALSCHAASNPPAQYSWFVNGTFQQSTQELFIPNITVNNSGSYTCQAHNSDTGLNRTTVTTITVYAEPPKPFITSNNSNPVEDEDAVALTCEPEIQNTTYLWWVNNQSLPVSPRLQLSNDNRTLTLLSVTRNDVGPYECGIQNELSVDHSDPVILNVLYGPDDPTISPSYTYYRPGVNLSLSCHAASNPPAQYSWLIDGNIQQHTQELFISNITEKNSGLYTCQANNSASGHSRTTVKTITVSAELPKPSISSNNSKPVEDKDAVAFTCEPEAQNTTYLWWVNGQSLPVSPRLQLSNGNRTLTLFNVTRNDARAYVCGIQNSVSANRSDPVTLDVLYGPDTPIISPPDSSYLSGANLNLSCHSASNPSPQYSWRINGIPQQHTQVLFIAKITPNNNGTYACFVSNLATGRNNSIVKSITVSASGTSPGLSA

Test [6] concerns the target T2, In-house produced Avi-tagged CEACAM5 (UniProt P06731 35-685).
T2 chain: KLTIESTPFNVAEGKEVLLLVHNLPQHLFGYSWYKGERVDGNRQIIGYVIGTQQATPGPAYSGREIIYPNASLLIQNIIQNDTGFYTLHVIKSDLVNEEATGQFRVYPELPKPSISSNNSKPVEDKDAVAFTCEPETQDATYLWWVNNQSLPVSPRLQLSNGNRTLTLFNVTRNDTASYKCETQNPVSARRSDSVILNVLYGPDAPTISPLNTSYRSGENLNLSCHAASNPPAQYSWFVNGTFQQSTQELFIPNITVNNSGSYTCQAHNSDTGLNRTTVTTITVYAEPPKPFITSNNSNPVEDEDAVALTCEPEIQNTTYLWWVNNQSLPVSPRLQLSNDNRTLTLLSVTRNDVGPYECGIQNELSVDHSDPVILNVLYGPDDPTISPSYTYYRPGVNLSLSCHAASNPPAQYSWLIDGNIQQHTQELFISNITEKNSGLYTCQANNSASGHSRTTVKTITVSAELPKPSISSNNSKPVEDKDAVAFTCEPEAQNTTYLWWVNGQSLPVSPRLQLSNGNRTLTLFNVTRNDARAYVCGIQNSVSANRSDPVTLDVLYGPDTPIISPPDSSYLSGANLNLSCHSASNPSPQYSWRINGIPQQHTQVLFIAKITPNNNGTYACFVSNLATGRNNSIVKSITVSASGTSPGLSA

Test [7] deals with T3, In-house produced Avi-tagged N256A mutated CEACAM6 (UniProt P40199 35-320).
T3 chain: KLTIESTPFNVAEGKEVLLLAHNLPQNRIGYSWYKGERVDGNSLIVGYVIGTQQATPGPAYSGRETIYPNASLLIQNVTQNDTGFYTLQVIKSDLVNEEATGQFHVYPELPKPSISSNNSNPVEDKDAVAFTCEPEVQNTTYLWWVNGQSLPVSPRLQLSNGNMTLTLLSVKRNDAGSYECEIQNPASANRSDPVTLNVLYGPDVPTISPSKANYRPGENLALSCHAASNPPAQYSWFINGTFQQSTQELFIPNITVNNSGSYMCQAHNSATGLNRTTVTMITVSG

In test [8] the target is T4, In-house produced Avi-tagged CEACAM6 (UniProt P40199 35-320).
T4 chain: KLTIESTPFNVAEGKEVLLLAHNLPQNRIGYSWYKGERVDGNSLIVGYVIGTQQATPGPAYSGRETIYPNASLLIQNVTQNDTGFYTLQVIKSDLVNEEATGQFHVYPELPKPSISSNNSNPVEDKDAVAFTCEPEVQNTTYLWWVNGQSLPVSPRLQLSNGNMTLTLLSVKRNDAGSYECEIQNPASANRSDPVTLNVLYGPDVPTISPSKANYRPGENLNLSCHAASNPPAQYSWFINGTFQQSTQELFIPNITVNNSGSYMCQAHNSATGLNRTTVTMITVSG

In the case of Tusamitamab, the results for the Kd in test [1] and in test [2] were 1.37 nM and 1.27 nM, respectively.

As to NEO-201, the Kd in test [1] came to 0.321 nM; in test [2], 0.401 nM; in test [3], 0.217 nM; in test [4], 0.126 nM.

B1: AB1 antibody (antibody, V domains shown)
VH: QVQLVQSGAEVKKPGASVKVSCKASGNTFTSYVMHWVRQAPGQGLEWMGYINPYNDGTKYNEKFKGRVTMTRDTSTSTVYMELSSLRSEDTAVYYCARSTARATPYFYAMDYWGQGTLVTVSS
VL: DIVMTQSPDSLAVSLGERATINCKSSQSLLWSVNQNSYLSWYQLKPGQPPKLLLYGASIRESGVPDRFSGSGSGTDFTLTISSLQAEDVAVYYCQHNHGSFLPYTFGGGTKLEIKR
B1: the Kd in test [5] was greater than 200 nM; in test [6], 63.8 nM; in test [7], 3180 nM; in test [8] it was 71.5 nM.

B2: EBC-123 (antibody, V domains shown)
VH: QVQLVQSGAEVKKPGASVKVSCKASGNTFTSYVMHWVRQAPGQGLEWMGYINPYNDGTKYNEKFKGRVTMTRDTSTSTVYMELSSLRSEDTAVYYCARSTARATPYFYAMDYWGQGTLVTVSS
VL: DIVMTQSPDSLAVSLGERATINCKSSQSLLWSVNQNSYLSWYQLKPGQPPKLLLYGASIRESGVPDRFSGSGSGTDFTLTISSLQAEDVAVYYCQHNHGSFLPYTFGGGTKLEIKR
B2: the Kd in test [5] came out at 0.555 nM; in test [6], 0.775 nM; in test [7] it was 1.61 nM; in test [8], 1.57 nM.
